Among the data in publication PMC7928716 are Ki and Kd values, retold here.

The target in assay [1] is AP2 μ2 160-435 (UniProt Q96CW1). Briefly: FP displacement of FITC-ATG9A probe. The settings on record: reference: unphosphorylated peptide; sites Y781.
For assay [2] the target is unchanged. Briefly: fluorescence polarisation.
Assay [3] addresses FITC-labeled ACE2(775–790) peptide, pTyr781 (human). Briefly: fluorescence polarisation. (In fluorescence polarisation assays a small probe gives low polarisation when free and higher when bound to something large.)
Assay [4] has as its target FITC-labeled ACE2(775–790) peptide, unphosphorylated (human). As to the kind of experiment: fluorescence polarisation.
Assay [5] deals with FITC-labeled ACE2(775–790) peptide, pSer783 (human). As to the kind of experiment: fluorescence polarisation.
Assay [6] has as its target MAP1LC3C ATG8 (2–125) (human) (UniProt Q9BXW4). As to the kind of experiment: fluorescence polarisation.
In assay [7] the target is MAP1LC3B ATG8 (2–119) (human) (UniProt Q9GZQ8). Briefly: fluorescence polarisation.
Assay [8] addresses MAP1LC3A ATG8 (2–119) (human) (UniProt Q9H492). As to the kind of experiment: fluorescence polarisation.
Assay [9] addresses GABARAP ATG8 (2-115) (human) (UniProt O95166). Briefly: fluorescence polarisation.
The target in assay [10] is […]2 ATG8 (2–115) (human) (UniProt P60520). Briefly: fluorescence polarisation.
Chain of […]2 ATG8 (2–115) (human) (P60520 2-115): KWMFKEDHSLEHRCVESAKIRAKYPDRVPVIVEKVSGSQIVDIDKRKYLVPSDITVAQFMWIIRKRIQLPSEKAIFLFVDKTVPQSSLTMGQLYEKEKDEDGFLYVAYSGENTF

Chain of MAP1LC3C ATG8 (2–125) (human) (Q9BXW4 2-125): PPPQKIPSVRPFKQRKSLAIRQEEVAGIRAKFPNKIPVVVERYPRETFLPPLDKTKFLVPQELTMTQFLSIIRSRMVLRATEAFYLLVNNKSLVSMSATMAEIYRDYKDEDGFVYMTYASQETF
Chain of GABARAP ATG8 (2-115) (human) (O95166 2-115): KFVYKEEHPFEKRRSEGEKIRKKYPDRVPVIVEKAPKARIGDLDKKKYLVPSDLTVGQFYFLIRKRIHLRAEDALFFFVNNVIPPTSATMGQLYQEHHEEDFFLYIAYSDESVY

The term Ki denotes a measure of affinity in units of concentration, obtained from inhibition or displacement. Turning to “ACE2 775-790 (from UniProt Q9BYF1) pTyr781 peptide”, the Ki entry with AP2 μ2 160-435 [1] is “lost; reference 101 ± 5”.

“ACE2(775–790) peptide, unphosphorylated, unlabeled (displacing peptide)”: in the assay with AP2 μ2 160-435 [2], the Ki came out at 101 µM.

Usually Kd stands for the equilibrium constant for the complex coming apart. A high value points to weaker binding. With “AP2 μ2 (160–435) (from UniProt Q96CW1 160-435) (domain or fragment)”, the values for the Kd in assay [3], in assay [4] and in assay [5] were > 100 µM, 60 µM and 30 µM, respectively.

With “FYN SH2 (142–251) (from UniProt P06241 142-251) (domain or fragment)”, the Kd in assay [4] and in assay [5] was > 100 µM throughout.

For “GABARAP ATG8 (2-115) (from UniProt O95166 2-115) (domain or fragment)”, the dissociation constant (Kd) in assay [3], in [4] and in [5] was > 100 µM in each case.

Turning to “MAP1LC3A ATG8 (2–119) (from UniProt Q9H492 2-119) (domain or fragment)”, the Kd in assay [3], in assay [4] and in assay [5] was > 100 µM in each case.

As for “NCK1 SH2 (275–377) (from UniProt P16333 275-377) (domain or fragment)”, the Kd in assay [3], in assay [4] and in assay [5] was > 100 µM each time.

As for integrin β3 tail peptide, pSer778, the values for the Ki in assay [6], in [7] and in [8] were 16.1 µM, > 100 µM and 29.4 µM, respectively.

Consider integrin β3 tail peptide, pThr777, for which the Ki in [9] was 47 µM; in assay [6], 73 µM; in assay [7], > 100 µM; in assay [8] it was > 100 µM.

Consider integrin β3 tail peptide, pThr779, for which the Ki in [10] was > 100 µM; in [6], 82 µM; in assay [7] it was > 100 µM; in [8], > 100 µM.

With “integrin β3 tail peptide, pThr779/pTyr785”, the Ki in assay [9] stood at 17.8 µM; in assay [6], 8 µM; in [7], 15 µM; in assay [8], 8.5 µM.

integrin β3 tail peptide, pTyr785: the Ki was determined as 89 µM in assay [10], 83 µM in assay [6], 81 µM in assay [7] and 38 µM in [8].

For the substance “integrin β3 tail peptide, unphosphorylated”, the Ki in assay [9], in [10], in assay [6], in assay [7] and in [8] was > 100 µM in each case.
